Experimental data published in the RNAGym collection of RNA variant scans (doi:10.1073/pnas.2313332121).
This sample holds only a part of the variants without activity.

B1: TPR 5TU (parent)
chain: GGAUCUUCUCGAUCUAACAAAAAAGACAAAUCUGCCACAAAGCUUGAGAGCAUCUUCGGAUGCAGAGGCGGCAGCCUUCGGUGGCGCGAUAGCGCCAACGUUCUCAACUAUGACACGCAAAACGCGUGCUCCGUUGAAUGGAGUUUAUCAUG

Variants of: B1
Assay: polymerase ribozyme fitness, log enrichment relative to wild type (log ratio); higher = more active; in vitro selection for triplet polymerase activity
In short: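 Each subunit of a heterodimeric triplet polymerase ribozyme was mutagenized into a library by PCR, transcribed, and subjected to one round of in vitro selection, run in triplicate. Libraries were annealed with a biotinylated primer, the partner subunit and triplets, incubated frozen at −7 °C, and extended constructs were gel-excised, captured on streptavidin beads and recovered by RT-PCR. Input and output libraries were sequenced on Illumina, keeping genotypes with ≥10 input reads and ≥1 read per output. Fitness is log base 2 of genotype enrichment divided by wild-type enrichment, from inverse-variance-weighted replicate averages.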

Variant | polymerase ribozyme fitness (log ratio)
GGAUCUUCUCGAUCUAACAAAAAAGACAAAUCUGACACAAAGCUUGAGAGCAUCUUCGGAUGCAAAGGCGGCAGCCUUCGGUGGCGCGAUAGCGCCAACGUUCUCAACUAUGACACGCAAAACGCGUGCUCCGUUGAAUGGAGUUUAUCAUG [C35A G65A] | -3.77
GGAUCUUCUCGAUCUAACAAAAAAGACAAAUCUGGCACAAAGCUUGAGAGCAUCUUCGGAUGCAGAGGCGGCAGCCUUCAGUGGCGCGAUUGCGCCAACGUUCUUAACUAUGACACGCAAAACGCGUGCUCCGUUGAAUGGAGUUUAUCAUG [C35G G80A A91U C105U] | ≤ -4.2
GGAUCUUCUCGAUCUAACAAAAAAGACAAAUCUGACACAAAGCUUGAGAGCAUCUUCGGAUGCAGAGGCGGCAGCCUUCGGUGGCGCGAUAGCCCCAACGUUCUCAACUAUGACACGCAAAACGCGUACUCCGUUGAAUGGAGUUUAUCAUG [C35A G94C G128A] | ≤ -4.2
GGAUCUUCUCGAUCUAACAAAAAAGACAAAUCUGGCACAAAGCUUGAGAGCAUCUUCGGAUGCAGAGGCGGCAGCGUUCGAGGGCGCGAUAGUGCCAACGUUCUCAACUAUGACACGCAAGACGCGUGCUCCGUUGAAUGGAGUUUAUCAUU [C35G C76G G81A U82G C93U A121G G152U] | -3.58
GGAUCUUCUCGAUCUAACAAAAAAGACAAAUCUGACACAAAGCUUGAGAGCAUCUUCGGAUGCAGAGGCGGCAGCCUUCGGUGGCGCGAUAACGCCAACGUUCUCAGCUAUGACACGCAAAACGCGUGCUCCGUUGAAUGGAGUUUAUCAUG [C35A G92A A107G] | ≤ -4.2
GGAUCUUCUCGAUCUAACAAAAAAGACAAAUCUGGCACAAAGCUUGAGAGCAUCUUCGGAUGCAGAGGCGGCAGCGUUCGGUGGCGCGGUAGCGCCAACGUUCUCAACUAUGACACGCAAAACGCGUGCUCCGUUGAAUGGAGUUUAUCAUG [C35G C76G A89G] | -3.96
GGAUCUUCUCGAUCUAACAAAAAAGACAAAUCUGACACAAAGCUUGAGAGCAUCUUCGGUGGCCGAGGCGGCAGCCUUCGGCGGAGCGAUAGCGCCAACGUUCUCAACUAUGACACGCAAAACGCGUGCUCCGUUGAAUGGCGUUUAUCAUG [C35A A60U U61G A64C U82C C85A A142C] | ≤ -4.2
GGAUCUUCUCGAUCUAACAAAAAAGACAAAUCUGGCACAAAGCUUGAGAGCAUGUUCGGAUGCAGAGGCGGCAGCCUUUGGUGGCGCGAUAGCGCCAACGUUCUCAACUAUGACACGCAAAACGCGAGCUCCGUUGAAUGGAGUUUAUCAUG [C35G C54G C79U U127A] | ≤ -4.2
GGAUCUUCUCGAUCUAACAAAAAAGACAAAUCUGGCACAAAGCUUGAAAGCAUCUUCUGAUGCAGAGGCGGCAGCCUUUGGUGGUGCGAUAGCGCCAACGUUCUCAACUAUGACACGCAAAACGCGUGCUCCGUUGAAUGGAGUUUAUCAUG [C35G G48A G58U C79U C85U] | ≤ -4.2
GGAUCUUCUCGAUCUAACAAAAAAGACAAAUCUGGCAAAAAGCUUGAGAGCAUCUUCGGAUGCAGAGGUGGCAGCCUUCGGUGUCGCGAUAGCGCCAACGUUCUCAACUAUGACACGCAAAACGCGUGCUCCGUUGAAUGGAGUUUAUCAUG [C35G C38A C69U G84U] | ≤ -4.2
GGAUCUUCUCGAUCUAACAAAAAAGACAAAUCUGGCACAAAGCUUGAGAGCGUCUUCGGAUGCAGAGGCGGCAGCCUUCGGUGGCGCGAUAGCGCUAACGUUCUCAACUAUGACACGCAAAACGCGUGCUCCGUUGAAUUGAGUUUAUCAUG [C35G A52G C96U G140U] | -4.08
GGAUCUUCUCGAUCUAACAAAAAAGACAAAUCUGACACAAAGCUUGAGAGCAUCUUCGGAUGCAGAGGAGGCAGCCUUCGGUGGCGCGAUAGCGCCAAUGUUCUCAACUAUGACACGCAAAACGCGCGCUCCGUUGAAUGGAGUUUAUCAUG [C35A C69A C99U U127C] | ≤ -4.2
GGAUCUUCUCGAUCUAACAAAAAAGACAAAUCUGACACAAAGCUUGAGAGCAUCUUAGGAUGCAGAGGCGGCAGCCUUCGGUUGCGCGAUAGCCCCAACGUUCUCAACUAUGACACGCAAAACGCGUGCUCCGUUGAAUGGAGUUUAUCAUG [C35A C57A G83U G94C] | ≤ -4.2
GGAUCUUCUCGAUCUAACAAAAAAGACAAAUCUGACACAAAGCUUGAGAGCAUUUUCGGAUGCAGAGGCGGCAGCCUUCGGUGGCGCGAUAGCUCCAACGUUCUCAACUAUGACACGCAAAACGCGUGCUCCGUGGAAUCGAGUUUAUCAUG [C35A C54U G94U U135G G140C] | ≤ -4.2
GGAUCUUCUCGAUCUAACAAAAAAGACAAAUCUGACACAAAGCUUGAGAGUAUCUUCGCAUGCGGAGGCGGCAGCCUUCGGUAGCGCGAUAGCGCCAACGUUCUCAACUAUGACACGCAAAACGCGUGCUCCGUUGAAUGGAGUUUAUCAUG [C35A C51U G59C A64G G83A] | ≤ -4.2
GGAUCUUCUCGAUCUAACAAAAAAGACAAAUCUGACACAAAGCUUGAGAGCAUCUUCGGAUGCAGAGACGGCAGCCUUCGGUGGCGCGAUAGCGGCAACGUUCUCAACUAUGACACGCAAAACGCGUGCUCGGUUGAAUGGAGUUUAUCAUG [C35A G68A C95G C132G] | ≤ -4.2
GGAUCUUCUCGAUCUAACAAAAAAGACAAAUCUGGCACAUAGCUUGAGAGCAUCUUCGGAUGCAGAGGCGACAGCCUUCGGUGGCGUGAUAGCGCCAACGUUCUCAACUAUGACACGCAAAACGCGUGCUCCGUUUAAUGGAGUUUAGCAUG [C35G A40U G71A C87U G136U U148G] | ≤ -4.2
GGAUCUUCUCGAUCUAACAAAAAAGACAAAUCUGGCACAAAGCUUGAGAGCAUCUUUGGAUGCAGAGGCGGCAGCCUUCGGUGGCGCGAUAGCGCCAACGUUCUCAACUAUGACACGCAAAACGCGUGCUCCGUUGAAUGGAGUUUAUCAUG [C35G C57U] | ≤ -4.2
GGAUCUUCUCGAUCUAACAAAAAAGACAAAUCUGACACAAAGCUUGAGAGCAUCGUUGGAUGCAGAGGCGGCAGCCUUCGGUGGCGCGAUAGAGCGAACGUUCUCAACUAUGACACGUAAAACGCGUGCUCCGUUGAAUGGAGUUUAUCAUG [C35A U55G C57U C93A C96G C118U] | ≤ -4.2
